Assay results published in a protein production outcome set (Wang et al. 2014).

Test: label from the status in PepcDB records

Row | Sequence | protein production
1 | MARMKARSGKGRRVARDTWKTKSWYEIRTPQSFGGDLLGTTPANDPSNLLGRVTETSLKDLTNDHSKHMVRLYFKVDGVAGNNATTQFVGHNTTREYLKSLVRRRRSKIVTITDIRTKDGYKIRVKAMVLTAVRARDHHKTDIRKKMEQIIVNMARNSTFPEFVQAMLLGGLGSKIYATCKRIMPMKRVEIYKSEVMEFGKSATPVVEAPAETEVKEEVKKEVVETQTE | failed
2 | MYNREGIQGHILSFIDFSKASTFLDIGCGKGNDLIEISNRTCKEAKLYGVDVKANLIEFAKMQTEGDCRFTFNVYDVEDGLKFEDESIDVIISCNVLECIKNKSKLLHEIHRVLKPDGKIIMAHFDWDTQIFNAFDKNLYRKLIHTYSDWQQPWMNDCDAWMGRRISGVFNETGLFSGNIFTYVVTESEYKEGFRGYSLINEEFKALVEKGIIKNTEFELFKDQIIQLEKTGHYFYSVNLYTYVGQKK | failed
3 | MQFPSIEDLRARNTMKWTRYGQGVLPLWVAESDFSTCPAVLQAITDAVQREAFGYQPDGSLLSQATAEFYADRYGYQARPEWIFPIPDVVRGLYIAIDHFTPAQSKVIVPTPAYPPFFHLLSATQREGIFIDATGGINLHDVEKGFQAGARSILLCNPYNPLGMVFAPEWLNELCDLAHRYDARVLVDEIHAPLVFDGQHTVAAGVSDTAASVCITITAPSKAWNIAGLKCAQIIFSNPSDAEHWQQLSPVIKDGASTLGLIAAEAAYRYGTDFLNQEVAYLKNNHDFLLHEIPKRIPGAKITPMQATYLMWIDFRDTTIEGSPSEFFIEKAKVAMNDGAWFGEDGTGFCRLNFATSREVLEEAIDRMAKAVSHHT | not failed
4 | MESAPSRLDGDRPRLSVRLLGPLEILRDGVPLALPASRKLRALLAYLALAPHAVGRGRLCELLWDVPNDPRGELRWCLSKLRAALDTPDRRRVTTQGDAVALDLDGCLVDALEISQAAAQGIATLDVERLQGLAGLFAGDLLDGLELERSPHFDSWLVAQRRRFDAYHAAVLEQLAASLPADCDETVSRLDRWIELAPFDTRAHAALLASLARRGEIGAAEQHLASAERLFQSEDLDFAPLRQAWRSIRDQRASHQAQPAGLPTPSHLVAASGDTGPVEPSHASLAVMPFVDESGARGGLADGFTHDIITRLAKLRDFFVIARGSVFALAEKAIAPEEAGRKLGVDYVASGTVRSLTGRLIVSVELVEVRTARIVWAETFERRPHDLFAVLDDIGDSIVSSISAEIETVERNRAMLKAPNSLNAWEAYHRGLWHMYRFTQAENEQARHFFDKALQLDPTFARAYAGLSFTHWQNAFQRWGDRDRESALAYESAGHSLLVDDHNPAAHWAMGRALWLRGEQDGSLAELERAVDLSPNFALGHYALSFVHSQSGDPQAAIGSSDHSRHLSPFDPLLFGMLGSRAMSHVRLGQFEEAAEWALKAAARPNAHTIILAIAAHCLALAGRLDEARGFAAAIRKTLPDYRADDFIGTFRFDPDAEALFRQGARRIGFS | failed
5 | MATKHEQILTYIDSLPVGEKISVRRIAKEMKVSEGTAYRAIKEAENKGFVSTIERVGTIRIEQKKKENIEKLTYAEVVNVIDGQVLGGRAGLHKTLNKFVIGAMELDAMMRYTAAGNLLIVGNRINAHRQALEAGAAVLVTGGFNTDDSIVQLADELELPILSTSYDTFTVAAMINRAIYDQLIKKEIVLVEDILTPADRTVYLSPKDKLEKWYEKNFETGHGRFPVVDDQMKIHGILTSKDIAGHDRNASIEKVMTKNPVTVIGKTSVASAAQMMVWEGIEVLPVTDGHQKLIGMISRQDVLKALQMIQKQPQVGEKLDDIVSRGFKDEGDDKEDQTVYEYEVTPQMTNQLGTISYGVFTTILTQAANRFLRSKKRGELVIESITIFFLKPVQMESVIEVKPRILEAGRKFGKMEVEVHSQGHIVSKAMLMVQLMERS | failed
6 | MHQQTLWLFSGIALVLIIATLISETLRWRARERPSAVLDNLVARIRAWWVMAAVVGLAFVFGRAGVIGLFALVSLFALREFITLTPTRRGDYYALLAAFYVVLPWQYGLVWTGWYGLYTLLIPVYAFLVLPILATIGGDTTRYLERTAKVQWGLMICVFCISHVPALLNLDIPGYAGRNLLLIAFLVIVVQSSDVLQYVWGKLAGRHLIAPKLSPSKTVEGFIGGVVSASLLGMALWWITPFAPWHAFGLALVANLMGFFGGLVMSAIKRDRGIKDWGHMIEGHGGVLDRLDSVCFAAPVFFHLIRYGWA | failed
7 | MMREFEIERQFNIKIEYIKPNKGVYFVKTNKGNKCLKKINYGIQKLLFVYAAKEHLINNGFKYVDKYCLNTEGNPYALVNEDIYTLSEWIEGRECSFYDTEDLVKASKTLAKMHECSKGYEPPENSKLKSDLGRWPHLIEKRVKALDKMRDMARKKGNKKDFDMNYIKNVDFFKEQGIKSMNVLKNSKYESLCAVAEEEKGFCHHDYTYHNIIINNEDNVYVIDFDYCKRELRAYDISNFMIKVLKRSNWSMKTAELILDSYSSISKLDDDEYGVIYAFLIFPQRFWRLANRYYYNEVNWGQNTFNNKMEELIEERERYIKFIEDFREAYNLQ | failed
8 | ALAERRLFAELVDHSVVNVHVVDKDLRWLAVNRQARHDFHLLYGRTPEIGDYLPGLFEDGTAGQTPILPMWQRALAGEQFIEIGTFGKPPAVRHYELRFNALRDPKGEVQGAFLFAYDISERVQEQERLAKAEAALRQAQKMEAVGQLSGGIAHDFNNLLGGI | failed
9 | MKPIDEELLLEQLIDNVKNCKDLEAAKALLFEICGHDAILEKAVDYCIFCHEGQFRKSGEPYAVHPILVATLVGFLSENKSNILAALLHDVIEDTNCTEEELREQFGSEVLKLVLGLTKIIEIREDNLISSKSKKSLTKSALTFRNMLLASIEDVGVLIVKLCDRLHNMLTLDILREDKQKRISEETLVVYAPIAHRLGISSIKNYLEDLSFKYLMPDEYKLIDNYINSNNQEMQLGLNEFISKIELLFLSNGFRQGSFEIQKRIKHSYSIYLKMQRKGIGIEEVLDLLGVRILVEKVSDCYLALGILHTHFNPLVSRFKDYIALPKQNGYQTIHTTLFDAKSIIEAQIRTFDMHKIAEFGIAAHWKYKEDGSVVAPRLDWLTDISMQSINNLENAEDYNAIELYEYAKDSLYVEDVAVYSPKGEIFTLPRGATVLDFAYEVHTKVGLHAKSAYVNRIKVPLLTELKNGDIVRVVTSNDKFYRCSWIDSVKTGKAKASIREFCKQKIREINLASSINMLSFIFGVDKNRIETWIEKENLVRRIRQVATDSAYLKDIVNGLKKYAKKSYWFDKYEIKEQKIGNFTLYCNHKIANVDFDFCCHPKRGDAVLAFVKGGNAIVHHKLCDRADKMIDNNQDMVFIKWDSNIPKSYKLIFSLENKKGVLAEFLAFLAKMQINLLTINLSSDLNSAVDYFEITMEIPDNINPDSVKDRLKSRCKILDFTSLNDAYKES | failed
10 | MTYNVTALVGNAGNQDTSGVRVDFVDNGVRVGSYTIPLLRSGETTTVVFNWTPMTVGSHTLQLIIDPENHIQETNETNNRIIL | failed
11 | MKKGRGYVYKLEYHLIWATKYRHQVLVDEVADGLKDILRDIATQNGLELVALEVMPDYVHLLLGATPQHVIPDFVKALKGASARRMFSAFPHLKQPHWGGNLWNPSYCVLTVSEHTRAQIQQYIENQHAAE | not failed
12 | MYIPKYFKVTNAEEIWNFVQENSFGTVVTTEQGKPIATHLPLGFNKKDDHYYITGHFAYGNPQWRTFEACEDVLVMFQGPHAYISSSWYSRENVPTWNYQAVHMYGKASMLEKDELAEELTIMLEQKTPTQAFSVLWDKLSPKLLESELKGIVGFKIKVEDIQAAYKLSQN | failed
13 | MLKEIKRRNRMKNKRLIGIIAALAVLVAGSLIYSSMNKSEAQNNKDEKKITKIGVLQFVSHPSLDLIYKGIQDGLAEEGYKDDQVKIDFMNSEGDQSKVATMSKQLVANGNDLVVGIATPAAQGLASATKDLPVIMAAITDPIGANLVKDLKKPGGNVTGVSDHNPAQQQVELIKALTPNVKTIGALYSSSEDNSKTQVEEFKAYAEKAGLTVETFAVPSTNEIASTVTVMTSKVDAIWVPIDNTIASGFPTVVSSNQSSKKPIYPSATAMVEVGGLASVVIDQHDLGVATGKMIVQVLKGAKPADTPVNVFSTGKSVINKKIAQELGITIPESVLKEAGQVIE | not failed
